Test results taken from the RNAGym collection of RNA variant scans (doi:10.1073/pnas.2313332121).
Fewer inactive variants are shown than the library holds.

B1: TPR 5TU (parent)
chain: GGAUCUUCUCGAUCUAACAAAAAAGACAAAUCUGCCACAAAGCUUGAGAGCAUCUUCGGAUGCAGAGGCGGCAGCCUUCGGUGGCGCGAUAGCGCCAACGUUCUCAACUAUGACACGCAAAACGCGUGCUCCGUUGAAUGGAGUUUAUCAUG

Variants of: B1
Assay: polymerase ribozyme fitness, log enrichment relative to wild type (log ratio); higher = more active; in vitro selection for triplet polymerase activity
In short: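 Streptavidin-bead capture of gel-excised extended constructs, followed by RT-PCR, closed a single triplicate in vitro selection round. That round began by annealing PCR-built, transcribed mutant libraries of each subunit of a heterodimeric triplet polymerase ribozyme with a biotinylated primer, the partner subunit and triplets, then incubating them frozen at −7 °C. After Illumina sequencing of inputs and outputs, genotypes needed ≥10 input reads and ≥1 read per output. Fitness is the base-2 logarithm of genotype enrichment over wild-type enrichment, using inverse-variance-weighted replicate averages.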

Variant	polymerase ribozyme fitness (log ratio)
U53A C76G G92A A107C G124U C149A	≤ -4.2
A52C C75U C85G C95G	≤ -4.2
C54A C95U	-2.22
A52G A106C	-0.69
U53A G83A	-1.64
A52G G92A	-3.13
A52G G92C	-1.46
A52G G86A C93A G143A	≤ -4.2
U53A C103U	-0.534
U53G A137G	-2.32
A52C G83C	-2.29
A52G U53A G84A	-0.8
C51U C95G C105G G117U	-3.53
U53G C103A C105G U130A	≤ -4.2
U53A G62C G84A G136A	-3.58
U53C C72U C132U	-3.52
A52U C87A A97U U127C A142C	≤ -4.2
U53C A150G	-1.01
A52U G94A G133U G143U	-3.88
U53A G94C	-1.3
U53C C118U C129G G141A	≤ -4.2
U53C A97U C114G U145A	-3.74
C54A A73U C87U	-3.49
C51U C103A	-1.29

Variant	polymerase ribozyme fitness (log ratio)
A52C G80C G84U C93U	≤ -4.2
A52G C54A C69A C87G U90C G100U C103A C105G	≤ -4.2
A52G G58C G68C	≤ -4.2
C51U C85G A106G	-2.8
U53A C76U	-1.36
C51U U139G U144A	0.259
A52C G88A	-3.57
C54A C87G A98G	≤ -4.2
C51U U134C	-0.745
A52U U77G G84C G128A G143A	≤ -4.2
U53G C54G C96G C114U	≤ -4.2
A52G C85U	-0.204
A52G C85G	-2.16
A52G G83U C96A U101C G124A U145A C149U	-2.95
U53A G71A C75G C76U G86A A107U C108U	≤ -4.2
U53C C54U C96A A120U	-0.901
C51U G86C A113G C114U A121G U151G	≤ -4.2
A52U G68A U82G G133U A137C A142C	≤ -4.2
U53G C63U G80C G81C G84U G100U	≤ -4.2
A52G G58U	-0.0148
A52G U56A C87A C93A A113G U135A	≤ -4.2
A52C G59A	-1.18
U53C G58A C99G	-0.95
C51U G86C	-2.98

Variant	polymerase ribozyme fitness (log ratio)
U53G A97G	-1.44
U53A G136A	-0.321
C51U G84C C87A C95A A122C A137U G141C	≤ -4.2
A52C A106G U139C	≤ -4.2
A52U C95U	-1.52
A52C G67A G74U G86U C93U A115G	≤ -4.2
A52U U53A C57A G58C A89U	0.000593
A52G U53A A119U G126C	0.147
A52G U148G	-4.18
U53A U102G G126A	-3.76
A52C G84A U130C	-0.715
A52C C108A	≤ -4.2
A52G C57A A73U	-0.666
U53A C99U U134A	-3.7
C51U G143U	-2.3
A52G G83C C93U	-3.66
U53A C99U	-2.58
A52U C123G	-1.97
U53A G70C C76A G86U A98U	≤ -4.2
A52G G136U A142G	-3.58
C51U U61A G84U	-2.8
A52C G84U U144G	-2.05
C51U G58U U82G C96U	-0.59
A52C U53A U148G	≤ -4.2

Variant	polymerase ribozyme fitness (log ratio)
A52G G83A A121G	-0.142
A52U A137G	-2.89
A52C A142G	-1.98
A52C C85U	-1.81
U53A U61C C79G A115U A150U	≤ -4.2
C54A A64C C85A G92U A121U C125G U134G U139G	≤ -4.2
C54A A91G A120G	-3.57
A52G U55A G59C G86U A142C G143C	≤ -4.2
C51U C85U	-0.8
A52C G88A C95U C99U A110U	-4.07
A52C C93U U102G	≤ -4.2
A52G G94C U102C C131U	-1.64
U53G A73G C85U G126U	-2.37
A52G G141U U145C G152A	-2.27
A52G G58C G59C C96G A150U	-3.59
C51U U55A C75A C85U U101A C114U A115G G124A	≤ -4.2
C51U G58A G124C	-1.29
U53A G70A G88A C96U C123U	≤ -4.2
A52G G152C	-3.59
A52C C57U U102G U146G	≤ -4.2
A52C C54U	-1.87
C51U G84A G117C U135A	-0.541
A52U U56A G83C G84A C99G A106U U144A	≤ -4.2
A52C G70A	-3.92

Variant	polymerase ribozyme fitness (log ratio)
U53A G92C U102C	-3.58
U53A C132U	-1.73
A52C G71C	≤ -4.2
A52G G71C C95A C131A U139A	≤ -4.2
U53A C54U C85G	-2.55
A52G C57U C75G A91U C95G C123A	-4.05
A52U U55A U56G A66G C99A C132U	≤ -4.2
U53A G136U U144G	-1.85
U53G A60U C69U C131G	≤ -4.2
U53A G83A C103U C132U	-3.25
U53A C57A U102G C125A U134A	≤ -4.2
U53A A107U U144G	-2.6
A52C C54U U78A C87U U135A	≤ -4.2
A52U C96U G100A A147C	≤ -4.2
U53G A107C	≤ -4.2
U53G C75G C76U C96A A115C	≤ -4.2
U53G C69A C99U C118A	≤ -4.2
A52U C79A A110U C116U A120U C131G	≤ -4.2
U53A U148A	-3.17
U53A U148C	-3.4
U53A C131A	-3.17
A52C U53G C72U G83A G124A	≤ -4.2
U53A C54U C85U G141U	-1.21
U53G C54G C85A U134A	≤ -4.2

Variant	polymerase ribozyme fitness (log ratio)
C54A C116G	-0.685
U53A G83U A147C	-1.91
A52C A66C A91C A115G	≤ -4.2
C54A C96U	-1.43
C51U G124A G133C G140A A150G	≤ -4.2
A52G A66C G84C C85A G126U	≤ -4.2
U53A C87A A89U G141C	≤ -4.2
U53A U144A	-1.56
A52G U56G G86A C95U A142C	≤ -4.2
A52C C76A	≤ -4.2
A52C C76G	≤ -4.2
U53A C95G C96G U146A	-3.91
U53A G94C C105A C118U	≤ -4.2
U53G C79A C87A U102G	≤ -4.2
U53A C118U U134C G141A U146C	-0.702
U53G G74A C114G	≤ -4.2
A52U U53A C57A G81U G83C C103G G126A	≤ -4.2
C54A C57U C95U	-1.9
U53A A73C	-3.99
U53A A91G G126U G140U	≤ -4.2
A52U U53G G88C A91C	≤ -4.2
U53G G92C C93A	≤ -4.2
U53A U55A C96A U127C A138U	≤ -4.2
A52C C57U	-1.24

Variant	polymerase ribozyme fitness (log ratio)
A52C C57G	-1.79
C51U U53G C93G U127C	≤ -4.2
A52U C129U	-2.91
U53C C57G U61A G124A G128U	-4.14
A52G C93G	-3.95
A52G C93U	-1.74
A52G C93A	-3.25
C51U C103A A121C	-1
U53A U61A A106U C129U	-3.27
U53A C85G G133C A150C	≤ -4.2
U53A G88U	≤ -4.2
C54A C95U A106C	-2.19
U53A G81C C85G C108U A138G A147G A150U G152U	-3.91
U53A U55A C95A A98G C123U G143C	-3.34
A52G C72U G81A G86A C103G A122C	≤ -4.2
A52G G92C G117U A137G U144A	≤ -4.2
U53A G128C A137C U148G C149G	≤ -4.2
A52G C57A C79U C85A C116U A122G	≤ -4.2
C51U C87U C103A C116A	-2.08
A52C C69G G74C	≤ -4.2
A52G A64U U101G A107C C125G	≤ -4.2
U53A G84U	-1.26
U53A G84A	-2.38
